“Also recorded” adds a separate entry of the source.
Experiments:
[1] = molecular target: T1, ErbB3 (HER3) (Homo sapiens (Human), UniProt P21860 20-1342); test: binding of fluorescent probe to HT29, A375, A2058 and WM115 cells; mean fluorescence intensity, total over non-specific (excess unlabelled probe)
T1 construct: They are human tumour lines, so human HER3 is meant; also called HER3 receptor
Method: The effects of trametinib and vemurafenib on cell-surface expressed ErbB3 were also monitored. HT29, A375, A2058 and WM115 cells were treated with 100 nM trametinib or 1 μM vemurafenib for 24 hours at 37° C. […] Specific binding was determined by calculating the mean fluorescent intensity ratio of total binding (labeled probe alone) divided by the non-specific binding (labeled probe with excess of unlabeled probe). Values should be reported as the binding ratio of drug-treated samples divided by the untreated sample.

[2] = tested on: B-Raf mutated cell lines (H29, A375, A2058 and WM115); test: Cell proliferative assays in B-Raf mutated cell lines; format: cell-based; conditions: four B-Raf mutated cell lines
Method: To investigate whether NRG signaling attenuates the anti-proliferative effects of trametinib or vemurafenib, cells were exposed to the drugs in the presence or absence of NRG. In addition, 2C2-YTE was introduced in a separate set of samples. Cell proliferative assays were performed in all four B-Raf mutated cell lines (H29, A375, A2058 and WM115).

B1: 2C2-YTE anti-HER3 antibody (antibody, V domains shown)
VH: EVQLLESGGGLVQPGGSLRLSCAASGFTFSYYYMQWVRQAPGKGLEWVSYIGSSGGVTNYADSVKGRFTISRDNSKNTLYLQMNSLRAEDTAVYYCARVGLGDAFDIWGQGTMVTVSS
VL: QSVLTQPPSASGTPGQRVTISCSGSLSNIGLNYVSWYQQLPGTAPKLLISRNNQRPSGVPDRFSGSKSGTSASLAISGLRSEDEADYYCAAWDDSPPGEAFGGGTKLTVL
notes: In the phosphorylation and proliferation assays it was unlabelled; also called 2C2-YTE mutant antibody; anti-HER3 antibody (2C2-YTE); not shown: human lambda light chain constant region
[1]
  binding result: binds

B2: NRG: neuregulin, HER3 ligand used to stimulate cells (protein)
chain: SHLVKCAEKEKTFCVNGGECFMVKDLSNPSRYLCKCPNEFTGDRCQNYVMASFYKHLGIEFMEAE
[2]
  effect of NRG on anti-proliferative effects of trametinib or vemurafenib: can robustly attenuate the effects of BRAF and MEK inhibitors; also recorded: attenuates the anti-proliferative effects of the BRAF and MEK inhibitors

From patent publication US20170190788A1, “USES OF ANTI-HER3 ANTIBODIES FOR TREATING CANCER” (BULLDOG PHARMACEUTICALS, INC., priority 2014, published 2017)
